Results taken from patent US20170010270A1 (Chugai, published 2017).

T1: GPC3 peptide, amino acid position 21-50 (SEQ ID NO: 2) (human)
T1 construct: synthetic 30-residue peptide of GPC3
T1 peptide: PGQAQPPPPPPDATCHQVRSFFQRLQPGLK

T2: GPC3 peptide, amino acid position 481-510 (SEQ ID NO: 25) (human)
T2 construct: synthetic 30-residue peptide of GPC3
T2 peptide: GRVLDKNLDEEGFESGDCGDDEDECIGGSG

T3: GPC3 peptide, amino acid position 281-310 (SEQ ID NO: 15) (human)
T3 construct: synthetic 30-residue peptide of GPC3
T3 peptide: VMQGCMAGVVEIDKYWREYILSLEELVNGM

T4: GPC3 peptide, amino acid position 441-470 (SEQ ID NO: 23) (human)
T4 construct: synthetic 30-residue peptide of GPC3
T4 peptide: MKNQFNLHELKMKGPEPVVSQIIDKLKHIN

T5: GPC3 peptide, amino acid position 161-190 (SEQ ID NO: 9) (human)
T5 construct: synthetic 30-residue peptide of GPC3
T5 peptide: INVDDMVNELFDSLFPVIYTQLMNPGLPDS

T6: GPC3 peptide, amino acid position 81-110 (SEQ ID NO: 5) (human)
T6 construct: synthetic 30-residue peptide of GPC3
T6 peptide: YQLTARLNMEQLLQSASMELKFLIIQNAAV

T7: GPC3 peptide, amino acid position 121-150 (SEQ ID NO: 7) (human)
T7 construct: synthetic 30-residue peptide of GPC3
T7 peptide: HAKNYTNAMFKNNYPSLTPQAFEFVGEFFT

T8: GPC3 peptide, amino acid position 301-330 (SEQ ID NO: 16) (human)
T8 construct: synthetic 30-residue peptide of GPC3
T8 peptide: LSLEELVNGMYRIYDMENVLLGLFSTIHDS

T9: GPC3 peptide, amino acid position 61-90 (SEQ ID NO: 4) (human)
T9 construct: synthetic 30-residue peptide of GPC3
T9 peptide: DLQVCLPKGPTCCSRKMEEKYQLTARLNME

T10: GPC3 peptide, amino acid position 501-530 (SEQ ID NO: 26) (human)
T10 construct: synthetic 30-residue peptide of GPC3
T10 peptide: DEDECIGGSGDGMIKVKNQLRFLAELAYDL

T11: GPC3 peptide, amino acid position 101-130 (SEQ ID NO: 6) (human)
T11 construct: synthetic 30-residue peptide of GPC3
T11 peptide: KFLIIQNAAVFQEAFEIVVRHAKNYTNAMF

T12: GPC3 peptide, amino acid position 401-430 (SEQ ID NO: 21) (human)
T12 construct: synthetic 30-residue peptide of GPC3
T12 peptide: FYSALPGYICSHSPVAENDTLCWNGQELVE

T13: GPC3 peptide, amino acid position 41-70 (SEQ ID NO: 3) (human)
T13 construct: synthetic 30-residue peptide of GPC3
T13 peptide: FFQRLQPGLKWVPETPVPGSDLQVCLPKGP

T14: GPC3 peptide, amino acid position 381-410 (SEQ ID NO: 20) (human)
T14 construct: synthetic 30-residue peptide of GPC3
T14 peptide: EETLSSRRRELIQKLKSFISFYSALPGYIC

T15: GPC3 peptide, amino acid position 141-170 (SEQ ID NO: 8) (human)
T15 construct: synthetic 30-residue peptide of GPC3
T15 peptide: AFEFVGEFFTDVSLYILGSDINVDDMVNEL

T16: GPC3 peptide, amino acid position 551-580 (SEQ ID NO: 29) (human)
T16 construct: synthetic 30-residue peptide of GPC3
T16 peptide: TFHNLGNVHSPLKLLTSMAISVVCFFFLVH

T17: GPC3 peptide, amino acid position 221-250 (SEQ ID NO: 12) (human)
T17 construct: synthetic 30-residue peptide of GPC3
T17 peptide: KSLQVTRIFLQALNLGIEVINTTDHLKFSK

T18: GPC3 peptide, amino acid position 341-370 (SEQ ID NO: 18) (human)
T18 construct: synthetic 30-residue peptide of GPC3
T18 peptide: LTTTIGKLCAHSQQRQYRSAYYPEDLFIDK

T19: GPC3 peptide, amino acid position 1-30 (SEQ ID NO: 1) (human)
T19 construct: synthetic 30-residue peptide of GPC3
T19 peptide: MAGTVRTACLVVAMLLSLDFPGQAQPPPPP

T20: GPC3 peptide, amino acid position 241-270 (SEQ ID NO: 13) (human)
T20 construct: synthetic 30-residue peptide of GPC3
T20 peptide: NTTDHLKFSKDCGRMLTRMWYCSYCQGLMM

T21: GPC3 peptide, amino acid position 421-450 (SEQ ID NO: 22) (human)
T21 construct: synthetic 30-residue peptide of GPC3
T21 peptide: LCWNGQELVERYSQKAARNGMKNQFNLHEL

T22: GPC3 peptide, amino acid position 181-210 (SEQ ID NO: 10) (human)
T22 construct: synthetic 30-residue peptide of GPC3
T22 peptide: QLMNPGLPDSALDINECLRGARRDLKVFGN

T23: GPC3 peptide, amino acid position 541-570 (SEQ ID NO: 28) (human)
T23 construct: synthetic 30-residue peptide of GPC3
T23 peptide: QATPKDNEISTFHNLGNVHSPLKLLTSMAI


Experiments:
Assay in all cases: ELISA on immobilised peptide
[1] = biological target: T1, GPC3 peptide, amino acid position 21-50 …
Procedure: (§1) In order to identify more detailed epitopes for the antibodies, the amino acid sequence of GPC3 was divided into peptides of 30 residues containing 10-residue overlaps, and the corresponding peptides were synthesized (SEQ ID NOs: 1 to 29 in Table 2). Each peptide thus synthesized was dissolved at a concentration of 1 mg/mL in dimethyl sulfoxide and then diluted to 1 μg/mL with PBS. The diluted peptide solution was added at 70 μL/well to a 96-well plate and immobilized thereon at room temperature for 1 hour. After removal of unimmobilized peptides, 20% Blocking-one (Nacalai Tesque, Inc.) was added thereto as a blocking buffer solution at 200 μL/well, and the plate was blocked overnight. After removal of the blocking buffer solution, each well was washed with TBS-T three times, and each antibody diluted to 2 μg/mL with a blocking buffer was then added thereto at 70 μL/well. One hour later, the antibody was removed, and each well was washed three times by the addition of TBS-T at 200 μL/well. An HRP-bound anti-mouse antibody was added at 70 μL/well to each well and reacted therewith for 1 hour. After removal of the antibody, each well was washed with 200 μL/well of TBS-T three times, and a chromogenic reagent ABTS Peroxidase Substrate System (1 component, KPL, Kirkegaard & Perry Laboratories, Inc.) was then added thereto at 70 μL/well and reacted at room temperature for […] to develop color. The reaction was terminated by the addition of 1% SDS at 70 μL/well, and the absorbance at 405 nm was measured using a plate reader.

[2] = biological target: T2, GPC3 peptide, amino acid position …
Procedure: as §1

[3] = biological target: T3, GPC3 peptide, amino acid position …
Procedure: as §1

[4] = biological target: T4, GPC3 peptide, amino acid position …
Procedure: as §1

[5] = biological target: T5, GPC3 peptide, amino acid position …
Procedure: as §1

[6] = biological target: T6, GPC3 peptide, amino acid position …
Procedure: as §1

[7] = biological target: T7, GPC3 peptide, amino acid position …
Procedure: as §1

[8] = biological target: T8, GPC3 peptide, amino acid position …
Procedure: as §1

[9] = biological target: T9, GPC3 peptide, amino acid position 61-90 …
Procedure: as §1

[10] = biological target: T10, GPC3 peptide, amino acid position …
Procedure: as §1

[11] = biological target: T11, GPC3 peptide, amino acid position …
Procedure: as §1

[12] = biological target: T12, GPC3 peptide, amino acid position …
Procedure: as §1

[13] = biological target: T13, GPC3 peptide, amino acid position 41-70 …
Procedure: as §1

[14] = biological target: T14, GPC3 peptide, amino acid position …
Procedure: as §1

[15] = biological target: T15, GPC3 peptide, amino acid position …
Procedure: as §1

[16] = biological target: T16, GPC3 peptide, amino acid position …
Procedure: as §1

[17] = biological target: T17, GPC3 peptide, amino acid position …
Procedure: as §1

[18] = biological target: T18, GPC3 peptide, amino acid position …
Procedure: as §1

[19] = biological target: T19, GPC3 peptide, amino acid position 1-30 …
Procedure: as §1

[20] = biological target: T20, GPC3 peptide, amino acid position …
Procedure: as §1

[21] = biological target: T21, GPC3 peptide, amino acid position …
Procedure: as §1

[22] = biological target: T22, GPC3 peptide, amino acid position …
Procedure: as §1

[23] = biological target: T23, GPC3 peptide, amino acid position …
Procedure: as §1

| binding result [1] | binding result [2] | binding result [3] | binding result [4] | binding result [5] | binding result [6] | binding result [7] | binding result [8] | binding result [9] | binding result [10] | binding result [11] | binding result [12] | binding result [13] | binding result [14] | binding result [15] | binding result [16] | binding result [17] | binding result [18] | binding result [19] | binding result [20] | Binder | also measured |
| --- | --- | --- | --- | --- | --- | --- | --- | --- | --- | --- | --- | --- | --- | --- | --- | --- | --- | --- | --- | --- | --- |
| no binding (tested: 2 µg/mL) | no binding (tested: 2 µg/mL) | no binding (tested: 2 µg/mL) | no binding (tested: 2 µg/mL) | no binding (tested: 2 µg/mL) | no binding (tested: 2 µg/mL) | no binding (tested: 2 µg/mL) | no binding (tested: 2 µg/mL) | no binding (tested: 2 µg/mL) | no binding (tested: 2 µg/mL) | no binding (tested: 2 µg/mL) | no binding (tested: 2 µg/mL) | no binding (tested: 2 µg/mL) | no binding (tested: 2 µg/mL) | no binding (tested: 2 µg/mL) | no binding (tested: 2 µg/mL) | no binding (tested: 2 µg/mL) | no binding (tested: 2 µg/mL) | no binding (tested: 2 µg/mL) | no binding (tested: 2 µg/mL) | GT114 antibody (antibody, IgG1, V domains shown) VH: DVQLQESGPGLVKPSQSLSLTCTVTGYSITSDSAWNWIRQFPGNKLEWMAYIMYSGITSYNPSLKSRISITRDTAKNQFFLQLNSVTTEDSATYYCSRGYWYFDVWGAGTTVTVSS VL: QIVLTQSPAIMSASLGEEITLTCSASSSVSYMHWYQQKSGTSPKLLIYSTSILASGVPSRFSGSGSGTFYSLTISSVEAEDAADYYCLQWITYRTFGGGTKLEIKR | binding result [21]: no binding (tested: 2 µg/mL); binding result [22]: no binding (tested: 2 µg/mL); binding result [23]: no binding (tested: 2 µg/mL) |
| no binding (tested: 2 µg/mL) | no binding (tested: 2 µg/mL) | no binding (tested: 2 µg/mL) | no binding (tested: 2 µg/mL) | no binding (tested: 2 µg/mL) | no binding (tested: 2 µg/mL) | no binding (tested: 2 µg/mL) | no binding (tested: 2 µg/mL) | no binding (tested: 2 µg/mL) | no binding (tested: 2 µg/mL) | no binding (tested: 2 µg/mL) | no binding (tested: 2 µg/mL) | no binding (tested: 2 µg/mL) | no binding (tested: 2 µg/mL) | no binding (tested: 2 µg/mL) | no binding (tested: 2 µg/mL) | no binding (tested: 2 µg/mL) | no binding (tested: 2 µg/mL) | no binding (tested: 2 µg/mL) | no binding (tested: 2 µg/mL) | GT165 antibody (antibody, IgG1, V domains shown) VH: QVQLQQSGAELVGPGASVKISCKAFGYTFTNHHINWVKQRPGQGLDWIGYINPYNDYTNYNQKFKGKATLTVDKSSSTAYMELSSLTSEDSAVYYCARSDPAWFAYWGQGTLVTVSA VL: DIQMTQSPSSLSASLGGKVTITCKASQDINKNIAWYQHKPGKGPRLLIWYTYTLQPGIPSRFSGSGSGRDYSFSISNLEPEDIATYYCLQYDNLPFTFGTGTKLEIKR | binding result [21]: no binding (tested: 2 µg/mL); binding result [22]: no binding (tested: 2 µg/mL); binding result [23]: no binding (tested: 2 µg/mL) |
| no binding (tested: 2 µg/mL) | no binding (tested: 2 µg/mL) | no binding (tested: 2 µg/mL) | no binding (tested: 2 µg/mL) | no binding (tested: 2 µg/mL) | no binding (tested: 2 µg/mL) | no binding (tested: 2 µg/mL) | no binding (tested: 2 µg/mL) | no binding (tested: 2 µg/mL) | no binding (tested: 2 µg/mL) | no binding (tested: 2 µg/mL) | no binding (tested: 2 µg/mL) | no binding (tested: 2 µg/mL) | no binding (tested: 2 µg/mL) | no binding (tested: 2 µg/mL) | no binding (tested: 2 µg/mL) | no binding (tested: 2 µg/mL) | no binding (tested: 2 µg/mL) | no binding (tested: 2 µg/mL) | no binding (tested: 2 µg/mL) | GT607 antibody (antibody, IgG1, V domains shown) VH: EVQLVESGGDVVRPGGSLKLSCAASGFTFSSYGMSWVRQLPDKRLEWVASVGNGGSYRYYPENLKGRFTISRDNTKNTLYLQISGLKSEDTAIYYCARRGAFPYFDVWGAGTTVTVSS VL: QIVLTQSPAIMSASPGEKVTLACSASSSVTYMHWYQQKSGTSPKRWIYETSKLASGVPPRFSGSGSGTSYSLTISTMEAEDAATYYCQQWSSNPLTFGAGTKLELKR | binding result [21]: no binding (tested: 2 µg/mL); binding result [22]: no binding (tested: 2 µg/mL); binding result [23]: no binding (tested: 2 µg/mL) |
